Several values for one entry are separate records, joined by “and”; a condition that tells them apart may be missing. Equal values may be shown once. Read-outs that look alike come from different tables or passages of the source.
Experiments:
[1] = target: human complement component C5 (human), P01031
[2] = target: human complement component C5 (human), P01031; remark: listed apart in the source
[3] = target: human complement component C5 (human), P01031; remark: listed apart in the source
[4] = target: human complement component C5 (human), P01031; assay: SPR multi-cycle kinetics
[5] = target: human complement component C5 (human), P01031; remark: listed apart in the source

Chain of human complement component C5 (human), P01031 (P01031 19-673 limits assumed, chain 1 of 2): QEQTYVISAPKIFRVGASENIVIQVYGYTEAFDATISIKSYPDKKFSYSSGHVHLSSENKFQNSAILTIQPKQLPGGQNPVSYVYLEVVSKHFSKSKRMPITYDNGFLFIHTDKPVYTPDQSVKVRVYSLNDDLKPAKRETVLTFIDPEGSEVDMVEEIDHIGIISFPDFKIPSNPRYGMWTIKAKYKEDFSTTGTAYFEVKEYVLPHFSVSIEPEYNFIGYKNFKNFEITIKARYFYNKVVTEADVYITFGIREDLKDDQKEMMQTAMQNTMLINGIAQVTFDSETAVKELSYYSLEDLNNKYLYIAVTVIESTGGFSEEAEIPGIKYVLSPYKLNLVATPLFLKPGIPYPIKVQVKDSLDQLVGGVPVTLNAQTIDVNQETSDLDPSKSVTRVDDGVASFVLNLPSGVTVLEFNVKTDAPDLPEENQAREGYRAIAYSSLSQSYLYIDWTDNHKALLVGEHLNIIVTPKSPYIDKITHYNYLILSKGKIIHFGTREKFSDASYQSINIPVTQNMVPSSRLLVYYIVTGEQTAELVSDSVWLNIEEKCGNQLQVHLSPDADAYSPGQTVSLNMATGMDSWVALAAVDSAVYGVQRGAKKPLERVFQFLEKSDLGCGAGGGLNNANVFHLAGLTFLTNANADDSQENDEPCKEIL
Chain of human complement component C5 (human), P01031 (P01031 678-1676 limits assumed, chain 2 of 2): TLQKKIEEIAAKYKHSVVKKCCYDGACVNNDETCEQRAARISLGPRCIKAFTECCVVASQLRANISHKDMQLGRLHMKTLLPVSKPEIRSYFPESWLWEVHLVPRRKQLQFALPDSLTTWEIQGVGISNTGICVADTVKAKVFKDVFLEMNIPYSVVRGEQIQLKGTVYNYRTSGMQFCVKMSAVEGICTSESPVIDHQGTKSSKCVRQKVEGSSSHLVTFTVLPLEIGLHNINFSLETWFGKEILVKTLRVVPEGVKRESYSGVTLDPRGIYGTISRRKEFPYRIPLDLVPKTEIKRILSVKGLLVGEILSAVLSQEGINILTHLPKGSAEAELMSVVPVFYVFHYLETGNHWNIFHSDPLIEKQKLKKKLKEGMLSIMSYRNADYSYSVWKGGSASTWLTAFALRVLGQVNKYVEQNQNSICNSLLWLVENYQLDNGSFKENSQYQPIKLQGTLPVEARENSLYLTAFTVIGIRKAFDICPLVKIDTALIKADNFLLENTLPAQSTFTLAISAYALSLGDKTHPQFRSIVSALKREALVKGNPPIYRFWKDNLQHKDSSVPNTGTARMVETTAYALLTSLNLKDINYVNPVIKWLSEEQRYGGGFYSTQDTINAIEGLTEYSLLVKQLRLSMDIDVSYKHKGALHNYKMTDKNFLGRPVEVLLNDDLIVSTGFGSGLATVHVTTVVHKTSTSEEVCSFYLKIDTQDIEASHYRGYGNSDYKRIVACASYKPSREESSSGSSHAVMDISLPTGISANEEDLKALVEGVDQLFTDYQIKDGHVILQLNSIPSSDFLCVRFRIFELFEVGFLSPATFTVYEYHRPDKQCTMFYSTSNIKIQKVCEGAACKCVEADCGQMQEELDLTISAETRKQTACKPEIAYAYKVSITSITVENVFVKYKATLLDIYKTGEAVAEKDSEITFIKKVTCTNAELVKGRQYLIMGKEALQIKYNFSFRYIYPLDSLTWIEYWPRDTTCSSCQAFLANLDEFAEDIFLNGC

Binder	Ki [1] [nM]	Kd [2] [nM]	Kd [3] [nM]	koff [3] [s⁻¹]	kon [3] [M⁻¹ s⁻¹]	fold lower affinity than K149chemSD-A [4] [fold]	Kd [5] [nM]	koff [5] [s⁻¹]	kon [5] [M⁻¹ s⁻¹]	IC50 [1]
GSGSCPDGFSYRSWDDFCCPMVGRCLAPRNGSENLYFQ (modifications not checked) [K149 knob domain peptide cleaved from the 645 Fab]	26.7	36.5								
SCPDGFSYRSWDDFCCPMVGRCLAPRNGS (modifications not checked) [K149 knob domain peptide, chemically synthesised, free energy method (Example 4)]			4.46	0.00685	1.54e+06					
GSTCPDNYREVDGCDPYDCCLTTWCTNSYCTRYIENLYFQ (modifications not checked) [K136 knob domain peptide cleaved from the 645 Fab]	18.9	6.4								44.9 nM and 31.2 nM

The next lines start with the values.

Ki [1] [nM]	Kd [2] [nM]	Kd [3] [nM]	koff [3] [s⁻¹]	kon [3] [M⁻¹ s⁻¹]	fold lower affinity than K149chemSD-A [4] [fold]	Kd [5] [nM]	koff [5] [s⁻¹]	kon [5] [M⁻¹ s⁻¹]	IC50 [1]	Binder
		246	0.00732	29700	35	269	0.00417	15600		SCPDGFSYRSWDDFCCPMVGRCLAPRN (modifications not checked) [K149B knob domain peptide, chemically synthesised, site-directed disulphides]
						5.57	0.00448	861000		SCPDGFSYRSWDDFCCPMVGRCLAPRN (modifications not checked) [K149chemFE knob domain peptide]

Source: patent US20240024520A1, “AUTONOMOUS KNOB DOMAIN PEPTIDES” (UCB BIOPHARMA SRL, priority 2020, published 2024)
